Laboratory results: US20240010695A1

Experiments:
Test in all cases: polyreactivity ELISA, antigen coated, 10 ug/mL binder
[1] = target: human serum albumin (human) (UniProt P02768)
[2] = target: insulin
[3] = target: keyhole limpet hemocyanin

absorbance at 450 nm normalized against the no-antigen control [1]: 16.6
absorbance at 450 nm normalized against the no-antigen control [2]: 21.4
absorbance at 450 nm normalized against the no-antigen control [3]: 38.8
Substance: Bococizumab (antibody)
